In US20240252601A1:

Legend:
Test in all cases: cell-based or functional assay
[1] = target: SARS-CoV2 Spike, Omicron BA.2 variant (on pseudovirus) (SARS-CoV2)
[2] = target: SARS-CoV2 Spike D614G (on pVSV-Luc-SARS-CoV2-S pseudovirus) (SARS-CoV2) (UniProt P0DTC2)
[3] = target: SARS-CoV2 Spike, Omicron BA.4/BA.5 variant (on pseudovirus) (SARS-CoV2)
[4] = target: SARS-CoV2 Spike, Omicron BA.4.6 variant (on pseudovirus) (SARS-CoV2)
[5] = target: SARS-CoV2 Spike, Omicron BA.1 variant (on pseudovirus) (SARS-CoV2)
[6] = target: SARS-CoV2 Spike, Omicron BA.2.12.1 variant (on pseudovirus) (SARS-CoV2)
[7] = target: SARS-CoV2 Spike, Omicron XBB1.5 variant (on pseudovirus) (SARS-CoV2)

Chain of ACE2 (615/615)-IgG-Fc (Q9BYF1 18-615 limits assumed): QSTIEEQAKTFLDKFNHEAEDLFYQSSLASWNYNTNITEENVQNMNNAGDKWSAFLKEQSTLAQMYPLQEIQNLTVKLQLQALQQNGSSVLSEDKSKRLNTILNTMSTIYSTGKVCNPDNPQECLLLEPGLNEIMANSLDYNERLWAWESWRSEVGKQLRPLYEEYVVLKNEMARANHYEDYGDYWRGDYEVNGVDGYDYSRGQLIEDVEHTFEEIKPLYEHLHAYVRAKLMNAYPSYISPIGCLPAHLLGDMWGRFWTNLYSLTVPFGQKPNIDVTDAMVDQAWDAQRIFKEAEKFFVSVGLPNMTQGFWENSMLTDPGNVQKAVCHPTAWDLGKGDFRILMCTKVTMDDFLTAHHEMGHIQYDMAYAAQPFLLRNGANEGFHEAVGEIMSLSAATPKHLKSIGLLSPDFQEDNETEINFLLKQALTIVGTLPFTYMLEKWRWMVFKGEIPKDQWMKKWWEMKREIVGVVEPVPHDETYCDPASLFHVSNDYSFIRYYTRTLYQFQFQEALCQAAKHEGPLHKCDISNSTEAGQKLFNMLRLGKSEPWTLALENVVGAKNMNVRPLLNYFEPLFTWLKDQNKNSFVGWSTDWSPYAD
Chain of ACE2 (615/615)-IgG-Fc (Q9BYF1 18-615 limits assumed): as above

Row | Substance | Fold reduction from against D614G [1] [fold] | IC50 [M], neutralization [1] [M] | Fold reduction from against D614G [2] [fold] | IC50 [M], neutralization [2] [M] | Fold reduction from against D614G [3] [fold] | IC50 [M], neutralization [3] [M] | Fold reduction from against D614G [4] [fold] | IC50 [M], neutralization [4] [M] | Fold reduction from against D614G [5] [fold] | IC50 [M], neutralization [5] [M] | Fold reduction from against D614G [6] [fold] | IC50 [M], neutralization [6] [M] | IC50 [M], neutralization [7] [M]
1 | ACE2 (615/615)-IgG-Fc (from UniProt Q9BYF1 18-615; Q9BYF1 18-615) (Fc fusion) | 3.51 | 1.86e-11 | 19.4 | 1.03e-10 | 11.6 | 6.17e-11 | 6.32 | 3.35e-11 | 1.25 | 6.61e-12 | 2.32 | 1.23e-11 | –
2 | ACE2 v2.4 (615)-Fc (x2), second row of this label in Table 6 (Fc fusion) | 515 | 2.73e-09 | 515 | 2.73e-09 | 317 | 1.68e-09 | 343 | 1.82e-09 | 240 | 1.27e-09 | 468 | 2.48e-09 | –
3 | REGEN-COV (REGN10933+REGN10987) | – | – | – | 5.2e-12 | – | – | – | – | – | – | – | – | > 2e-08
